Results published in paper doi:10.1101/2023.08.08.552478 (bioRxiv, 2023).
Primed or numbered codes have the meaning given here. No end group written: not given here. FITC′ = fluorescein isothiocyanate

Target: PEX5 TPR domain (C-terminal cargo-binding TPR domain of human PEX5L) (human, UniProt P50542-1 315-639)
Assay: fluorescence polarisation

Kd: 250 µM
B1: N-terminal FITC conjugated SAPKIPSWQIPVKSPSPS PEX14 peptide (peptide)
peptide: {FITC′}-SAPKIPSWQIPVKSPSPS
